From US20260034244A1

Molecular target: VEGFR-2

EC50 (read off the curve): 5 ng/mL
Substance: VEGF-A (from UniProt P15692 27-191) (ligand)
